This series deals with the molecule itself. Kind of series: SEC-SAXS; SIBYLS beamline 12.3.1; Shodex KW-804 column for Pfs230D1-ferritin, Shodex KW-802.5 column for Pfs230D1; molecular weight from SAXS (ATSAS). On the technique in general: SEC sorts molecules by how far they enter the pores of the column.

B1: Pfs230D1-ferritin (other)
chain: SVLQSGALPSVGVDELDKIDLSYETTESGDTAVSEDSYDKYASNNTNKEYVCDFTDQLKPTESGPKVKKCEVKVNEPLIKVKIICPLKGSVEKLYDNIEYVPKKSPYVVLTKEETKLKEKLLSKLIYGLLISPTVNEKENNFKEGVIEFTLPPVVHKATVFYFICDNSKTEDDNKKGNRGIVEVYVEPYGNKINGGGGGSGESQVRQQFSKDIEKLLNEQVNKEMQSSNLYMSMSSWCYTHSLDGAGLFLFDHAAEEYEHAKKLIIFLNENNVPVQLTSISAPEHKFEGLTQIFQKAYEHEQHISESINNIVDHAIKSKDHATFNFLQWYVAEQHEEEVLFKDILDKIELIGNENHGLYLADQYVKGIAKSRKS
notes: Pfs230 of Plasmodium falciparum 3D7 (XP_001349600.1): a portion of the N-terminal disordered region, amino acids 542-588, and domain 1 (D1), amino acids 589-736; linker that contains residues from the N-terminal extension found in bullfrog lower subunit ferritin; Helicobacter pylori ferritin (WP_000949190.1), amino acids 3-167, with I7E and N19Q; Cloned in a modified pHLSec with a secretion …
By stoichiometry N is commonly meant the number of molecules, sites or subunits per partner or assembly. Consider B1, for which the “stoichiometry N” value was 24.

B2: ferritin (H. pylori ferritin nanoparticle construct without Pfs230D1) (other)
chain: GGSGGSGGGGSGESQVRQQFSKDIEKLLNEQVNKEMQSSNLYMSMSSWCYTHSLDGAGLFLFDHAAEEYEHAKKLIIFLNENNVPVQLTSISAPEHKFEGLTQIFQKAYEHEQHISESINNIVDHAIKSKDHATFNFLQWYVAEQHEEEVLFKDILDKIELIGNENHGLYLADQYVKGIAKSRKS
notes: linker that contains residues from the N-terminal extension found in bullfrog lower subunit ferritin; Helicobacter pylori ferritin (WP_000949190.1), amino acids 3-167, with I7E and N19Q; Cloned in a modified pHLSec with a secretion signal ahead of the subunit; purified without a tag; Subunit theoretical molecular weight printed as 21.2 kDa; also called ferritin construct; Helicobacter pylori …
With B2, the “stoichiometry N” value turned out to be 24.

(Values after PMC11125772, “A Self-Assembling Pfs230D1-Ferritin Nanoparticle Vaccine Has Potent and Durable Malaria Transmission-Reducing Activity” (Vaccines, 2024).)
